Measurements published in the supplement of paper PMC10567573.

B1: BTBD1 (parent)
chain: TSAEIELPDVEPAAFLALLRFLYS
B2: HSP90AB1 (parent)
chain: EADKNDKAVKDLVVLLFETALLSS

Variants of: B1
Experiment: protein stability index of a GFP-peptide fusion (GPS, HEK-293T) (PSI 1-6); higher = more stable
Conditions: c terminus: a fixed tail appended
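Also: lentivirally expressed fusions sorted by FACS into six bins by GFP to DsRed ratio, PSI derived from sequencing read proportions per bin multiplied by bin number.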

Row | Variant | protein stability index
1 | TSAEIELPDVEPAAFLALLRFLYE [S24E] | 1.69
2 | TSAEIELPDVEPAAFLALLRFLYL [S24L] | 2.39
3 | TSAEIELPDVEPAAFLALLRFLYW [S24W] | 1.89
4 | TSAEIELPDVEPAAFLALLRFLYA [S24A] | 2.19
5 | TSAEIELPDVEPAAFLALLRFLYT [S24T] | 1.97
6 | TSAEIELPDVEPAAFLALLRFLYC [S24C] | 2.12
7 | TSAEIELPDVEPAAFLALLRFLYD [S24D] | 1.89
8 | TSAEIELPDVEPAAFLALLRFLYQ [S24Q] | 2.33
9 | TSAEIELPDVEPAAFLALLRFLYN [S24N] | 1.78
10 | TSAEIELPDVEPAAFLALLRFLYG [S24G] | 2.86
11 | TSAEIELPDVEPAAFLALLRFLYI [S24I] | 2.32
12 | TSAEIELPDVEPAAFLALLRFLYP [S24P] | 2.61
13 | TSAEIELPDVEPAAFLALLRFLYK [S24K] | 1.52
14 | TSAEIELPDVEPAAFLALLRFLYR [S24R] | 2.44
15 | TSAEIELPDVEPAAFLALLRFLYY [S24Y] | 1.94
16 | TSAEIELPDVEPAAFLALLRFLYF [S24F] | 2.33
17 | TSAEIELPDVEPAAFLALLRFLYV [S24V] | 2.1
18 | TSAEIELPDVEPAAFLALLRFLYM [S24M] | 2.37
19 | TSAEIELPDVEPAAFLALLRFLYH [S24H] | 1.72
20 | TSAEIELPDVEPAAFLALLRFVYS [L22V] | 2.15
21 | TSAEIELPDVEPAAFLALLRFCYS [L22C] | 1.64
22 | TSAEIELPDVEPAAFLALLRFTYS [L22T] | 1.98
23 | TSAEIELPDVEPAAFLALLRFFYS [L22F] | 2.61
24 | TSAEIELPDVEPAAFLALLRFAYS [L22A] | 1.71
25 | TSAEIELPDVEPAAFLALLRFNYS [L22N] | 2.06
26 | TSAEIELPDVEPAAFLALLRFRYS [L22R] | 1.26

Row | Variant | protein stability index
27 | TSAEIELPDVEPAAFLALLRFGYS [L22G] | 1.72
28 | TSAEIELPDVEPAAFLALLRFWYS [L22W] | 1.56
29 | TSAEIELPDVEPAAFLALLRFMYS [L22M] | 2.23
30 | TSAEIELPDVEPAAFLALLRFYYS [L22Y] | 1.83
31 | TSAEIELPDVEPAAFLALLRFIYS [L22I] | 1.75
32 | TSAEIELPDVEPAAFLALLRFDYS [L22D] | 1.87
33 | TSAEIELPDVEPAAFLALLRFHYS [L22H] | 1.96
34 | TSAEIELPDVEPAAFLALLRFPYS [L22P] | 2.26
35 | TSAEIELPDVEPAAFLALLRFQYS [L22Q] | 1.5
36 | TSAEIELPDVEPAAFLALLRFEYS [L22E] | 2.07
37 | TSAEIELPDVEPAAFLALLRFKYS [L22K] | 1.91
38 | TSAEIELPDVEPAAFLALLRFSYS [L22S] | 1.16
39 | TSAEIELPDVEPAAFLALLRTLYS [F21T] | 1.89
40 | TSAEIELPDVEPAAFLALLRMLYS [F21M] | 1.94
41 | TSAEIELPDVEPAAFLALLRYLYS [F21Y] | 1.61
42 | TSAEIELPDVEPAAFLALLRVLYS [F21V] | 2.01
43 | TSAEIELPDVEPAAFLALLRGLYS [F21G] | 2.18
44 | TSAEIELPDVEPAAFLALLRQLYS [F21Q] | 1.99
45 | TSAEIELPDVEPAAFLALLRILYS [F21I] | 2.25
46 | TSAEIELPDVEPAAFLALLRPLYS [F21P] | 1.8
47 | TSAEIELPDVEPAAFLALLRALYS [F21A] | 2.21
48 | TSAEIELPDVEPAAFLALLRDLYS [F21D] | 1.85
49 | TSAEIELPDVEPAAFLALLRHLYS [F21H] | 2.14
50 | TSAEIELPDVEPAAFLALLRSLYS [F21S] | 1.97
51 | TSAEIELPDVEPAAFLALLRCLYS [F21C] | 1.4
52 | TSAEIELPDVEPAAFLALLRRLYS [F21R] | 2.25

Row | Variant | protein stability index
53 | TSAEIELPDVEPAAFLALLRLLYS [F21L] | 2.01
54 | TSAEIELPDVEPAAFLALLRNLYS [F21N] | 1.69
55 | TSAEIELPDVEPAAFLALLRKLYS [F21K] | 1.78
56 | TSAEIELPDVEPAAFLALLRWLYS [F21W] | 2.41
57 | TSAEIELPDVEPAAFLALLRELYS [F21E] | 1.82
58 | TSAEIELPDVEPAAFLALLRFLLS [Y23L] | 2.57
59 | TSAEIELPDVEPAAFLALLRFLHS [Y23H] | 1.6
60 | TSAEIELPDVEPAAFLALLRFLFS [Y23F] | 1.75
61 | TSAEIELPDVEPAAFLALLRFLTS [Y23T] | 1.94
62 | TSAEIELPDVEPAAFLALLRFLDS [Y23D] | 1.49
63 | TSAEIELPDVEPAAFLALLRFLNS [Y23N] | 1.61
64 | TSAEIELPDVEPAAFLALLRFLAS [Y23A] | 1.99
65 | TSAEIELPDVEPAAFLALLRFLQS [Y23Q] | 2.21
66 | TSAEIELPDVEPAAFLALLRFLKS [Y23K] | 2.1
67 | TSAEIELPDVEPAAFLALLRFLMS [Y23M] | 2.27
68 | TSAEIELPDVEPAAFLALLRFLWS [Y23W] | 1.99
69 | TSAEIELPDVEPAAFLALLRFLGS [Y23G] | 1.58
70 | TSAEIELPDVEPAAFLALLRFLVS [Y23V] | 2.37
71 | TSAEIELPDVEPAAFLALLRFLIS [Y23I] | 1.97
72 | TSAEIELPDVEPAAFLALLRFLSS [Y23S] | 1.36
73 | TSAEIELPDVEPAAFLALLRFLRS [Y23R] | 2.26
74 | TSAEIELPDVEPAAFLALLRFLCS [Y23C] | 1.79
75 | TSAEIELPDVEPAAFLALLRFLPS [Y23P] | 1.75
76 | TSAEIELPDVEPAAFLALLRFLES [Y23E] | 1.9
77 | TSAEIELPDVEPAAFLALLWFLYS [R20W] | 3.4
78 | TSAEIELPDVEPAAFLALLYFLYS [R20Y] | 2.09

Variants of: B2
Experiment: as above
Conditions: c terminus: a fixed tail appended

Row | Variant | protein stability index
79 | EADVNDKAVKDLVVLLFETALLSS [K4V] | 1.85
80 | EADWNDKAVKDLVVLLFETALLSS [K4W] | 2.12
81 | EADNNDKAVKDLVVLLFETALLSS [K4N] | 2.05
82 | EADTNDKAVKDLVVLLFETALLSS [K4T] | 2.06
83 | EADHNDKAVKDLVVLLFETALLSS [K4H] | 1.82
84 | EADINDKAVKDLVVLLFETALLSS [K4I] | 2
85 | EADENDKAVKDLVVLLFETALLSS [K4E] | 2.2
86 | EADQNDKAVKDLVVLLFETALLSS [K4Q] | 2.09
87 | EADRNDKAVKDLVVLLFETALLSS [K4R] | 1.59
88 | EADDNDKAVKDLVVLLFETALLSS [K4D] | 2.13
89 | EADGNDKAVKDLVVLLFETALLSS [K4G] | 1.34
90 | EADMNDKAVKDLVVLLFETALLSS [K4M] | 2.13
91 | EADYNDKAVKDLVVLLFETALLSS [K4Y] | 2.13
92 | EADPNDKAVKDLVVLLFETALLSS [K4P] | 1.63
93 | EADANDKAVKDLVVLLFETALLSS [K4A] | 1.9
94 | EADLNDKAVKDLVVLLFETALLSS [K4L] | 1.75
